The record followed here is FireProtDB.

“And” between values parts separate entries of the source, which are not always exact repeats. Identical values can stand only once.

For the data set the following is noted: whole UniProt chain shown.
The mark [1] stands for this setting: Rattus norvegicus, pH 7.5, Thermal, CD, phosphate 10 mM, NaF 100 mM, reversible: yes.
The mark [2] stands for this setting: Pseudomonas aeruginosa (strain ATCC 15692 / DSM 22644 / CIP 104116 / JCM 14847 / LMG 12228 / 1C / PRS 101 / PAO1), pH 7, Thermal, CD, KH2PO4-NaOH 10 mM, reversible: yes.
The mark [3] stands for this setting: Nitratidesulfovibrio vulgaris (strain DSM 19637 / Miyazaki F), pH 7, 20 °C, GdnHCl, CD, phosphate 0.1 M, reversible: yes.
The mark [4] stands for this setting: Oryctolagus cuniculus, pH 7.4, Thermal, DSC, sodium phosphate 50 mM, reversible: yes.
Where [5] appears, read: Pyrococcus furiosus (strain ATCC 43587 / DSM 3638 / JCM 8422 / Vc1), pH 7, 40 °C, GdnHCl, CD, Tris-HCl 20 mM, reversible: yes.
Setting [6] is: Pyrococcus furiosus (strain ATCC 43587 / DSM 3638 / JCM 8422 / Vc1), pH 7, 60 °C, GdnHCl, CD, Tris-HCl 20 mM, reversible: yes.
[7] abbreviates: Notophthalmus viridescens, pH 7.2, 25 °C, GdnHCl, CD, Phosphate 100 mM.
Where [8] appears, read: Phaseolus vulgaris, pH 7, 25 °C, GdnHCl, CD, Potassium phosphate 50 mM, Na2SO4 0.5 M, reversible: yes.
[9] abbreviates: Phaseolus vulgaris, pH 7, 25 °C, GdnHCl, Fluorescence, Potassium phosphate 50 mM, Na2SO4 0.5 M, reversible: yes.

B1: Serine proteinase inhibitor IA-1 wild type, Q7M4T6 (protein)
chain: SAGKFIVIFKNDVSEDKIRETKDEVIAEGGTITNEYNMPGMKGFAGELTPQSLTKFQGLQGDLIDSIEEDGIVTTQ
Regarding B1, under “Pleurotus ostreatus, pH 7, Thermal, CD, sodium phosphate 50 mM”, the Tm – broadly, the temperature at which the thermal transition is half complete – worked out at 59 °C.

B2: Cytochrome b5 wild type, P00173 (protein)
chain: MAEQSDKDVKYYTLEEIQKHKDSKSTWVILHHKVYDLTKFLEEHPGGEEVLREQAGGDATENFEDVGHSTDARELSKTYIIGELHPDDRSKIAKPSETLITTVESNSSWWTNWVIPAISALVVALMYRLYMAED
For the protein B2, the Tm (Rattus norvegicus, pH 7, Thermal, UV spectroscopy, Sodium phosphate 50 mM, reversible: Yes) is 93.1 °C.

B3: Homeobox protein Nkx-2.1 wild type, P23441 (protein)
chain: MSMSPKHTTPFSVSDILSPLEESYKKVGMEGGGLGAPLAAYRQGQAAPPAAAMQQHAVGHHGAVTAAYHMTAAGVPQLSHSAVGGYCNGNLGNMSELPPYQDTMRNSASGPGWYGANPDPRFPAISRFMGPASGMNMSGMGGLGSLGDVSKNMAPLPSAPRRKRRVLFSQAQVYELERRFKQQKYLSAPEREHLASMIHLTPTQVKIWFQNHRYKMKRQAKDKAAQQQLQQDSGGGGGGGGGAGCPQQQQAQQQSPRRVAVPVLVKDGKPCQAGAPAPGAASLQGHAQQQAQQQAQAAQAAAAAISVGSGGAGLGAHPGHQPGSAGQSPDLAHHAASPAALQGQVSSLSHLNSSGSDYGAMSCSTLLYGRTW
For B3, under “Rattus norvegicus, pH 7.5, 25 °C, Urea, CD, phosphate 10 mM, NaF 100 mM, reversible: yes”, the unfolding free energy turned out to be 1.26 kcal/mol. Besides, under setting [1], the Tm is 42.8 °C and the unfolding free energy turned out to be 1.44 kcal/mol.

B4: Cytochrome c-551 wild type, P00099 (protein)
chain: MKPYALLSLLATGTLLAQGAWAEDPEVLFKNKGCVACHAIDTKMVGPAYKDVAAKFAGQAGAEAELAQRIKNGSQGVWGPIPMPPNAVSDDEAQTLAKWVLSQK
With B4, under setting [2], the Tm came out at 56 °C and the “unfolding enthalpy (van 't Hoff)” value is 39.5 kcal/mol.

B5: Lipase B wild type, P41365 (protein)
chain: MKLLSLTGVAGVLATCVAATPLVKRLPSGSDPAFSQPKSVLDAGLTCQGASPSSVSKPILLVPGTGTTGPQSFDSNWIPLSTQLGYTPCWISPPPFMLNDTQVNTEYMVNAITALYAGSGNNKLPVLTWSQGGLVAQWGLTFFPSIRSKVDRLMAFAPDYKGTVLAGPLDALAVSAPSVWQQTTGSALTTALRNAGGLTQIVPTTNLYSATDEIVQPQVSNSPLDSSYLFNGKNVQAQAVCGPLFVIDHAGSLTSQFSYVVGRSALRSTTGQARSADYGITDCNPLPANDLTPEQKVAAAALLAPAAAAIVAGPKQNCEPDLMPYARPFAVGKRTCSGIVTP
Regarding B5, the Tm came out at 57.7 °C (Pseudozyma antarctica, pH 7, Thermal, CD, Tris-HCl 50 mM, reversible: No) and 54.8 °C (Pseudozyma antarctica, pH 7, Thermal, Differential Scanning Fluorimetry, HEPES 10mM).

B6: Cytochrome c-553 wild type, P00120 (protein)
chain: MKRILVVMSICAALAFGVSAAMAADGAALYKSCVGCHGADGSKQAMGVGHAVKGQKADELFKKLKGYADGSYGGEKKAVMTNLVKRYSDEEMKAMADYMSKL
For B6, under setting [3], the denaturant m value was 2.49 kcal/mol/M and 2.75 kcal/mol/M; the “denaturant midpoint (higher = more stable)” value (shortened to “denaturant midpoint”) was 3.65 M and 3.91 M; the unfolding free energy was 9.08 kcal/mol and 10.8 kcal/mol.

B7: Cytochrome b5 wild type, P00169 (protein)
chain: MAAQSDKDVKYYTLEEIKKHNHSKSTWLILHHKVYDLTKFLEEHPGGEEVLREQAGGDATENFEDVGHSTDARELSKTFIIGELHPDDRSKLSKPMETLITTVDSNSSWWTNWVIPAISALIVALMYRLYMADD
Take B7: where the note is “Oryctolagus cuniculus, pH 7.4, 25 °C, Thermal, DSC, sodium phosphate 50 mM, reversible: yes”, the unfolding free energy was 1.7 kcal/mol. Further, under setting [4], the Tm amounted to 48.5 °C, the “heat capacity change of unfolding” value was found to be 1 kcal/mol/K and the “unfolding enthalpy (calorimetric)” value stood at 35.7 kcal/mol.

B8: Pyrrolidone-carboxylate peptidase wild type, O73944 (protein)
chain: MKVLVTGFEPFGGEKINPTERIAKDLDGIKIGDAQVFGRVLPVVFGKAKEVLEKTLEEIKPDIAIHVGLAPGRSAISIERIAVNAIDARIPDNEGKKIEDEPIVPGAPTAYFSTLPIKKIMKKLHERGIPAYISNSAGLYLCNYVMYLSLHHSATKGYPKMSGFIHVPYIPEQIIDKIGKGQVPPSMCYEMELEAVKVAIEVALEELL
Turning to B8, under setting [5], the denaturant m value turned out to be 4.66 kcal/mol/M, the “denaturant midpoint” value is 0.4 M and the unfolding free energy came to 1.82 kcal/mol. Also, under setting [6], the denaturant m value worked out at 4.13 kcal/mol/M, the “denaturant midpoint” value amounted to 3.2 M and the unfolding free energy is 13 kcal/mol.

B9: Gastrotropin wild type, P80020 (protein)
chain: MAFTGKYEFESEKNYDEFMKRLGLPDEVIERGRNFKIITEVQQDGENFTWSQSYSGGNIMSNKFTIGKECEMQTMGGKKFKATVKMEGGKVVADFPNYHQTSEVVGDKLVEISTIGDVTYERVSKRVA
Take B9: the unfolding free energy reads like this: (Rattus norvegicus, pH 8, 25 °C, Urea, CD, NaH2PO4 25 mM/, NaCl 75 mM, reversible: Yes) 4.39 kcal/mol; (Rattus norvegicus, pH 8, 25 °C, Urea, Fluorescence, NaH2PO4 25 mM/, NaCl 75 mM, reversible: Yes) 4.71 kcal/mol.

B10: Cytochrome b5 type B wild type, P04166 (protein)
chain: MATPEASGSGRNGQGSDPAVTYYRLEEVAKRNTAEETWMVIHGRVYDITRFLSEHPGGEEVLLEQAGADATESFEDVGHSPDAREMLKQYYIGDVHPNDLKPKDGDKDPSKNNSCQSSWAYWIVPIVGAILIGFLYRHFWADSKSS
Take B10: the “denaturant midpoint” value (Rattus norvegicus, pH 7, 25 °C, GdmSCN, UV/visible spectrophotometer, MOPS 30mM) worked out at 2.04 M. For the same protein, the Tm (Rattus norvegicus, pH 7, Thermal, UV/visible spectrophotometer, Potassium phosphate 50mM) came out at 85.5 °C.

B11: Fibroblast growth factor 1 wild type, Q7SIF8 (protein)
chain: QKPKLLYCSNGGYFLRIFPDGKVDGTRDRSDPYIQLQFYAESVGEVYIKSLETGQYLAMDSDGQLYASQSPSEECLFLERLEENNYNTYKSKVHADKDWFVGIKKNGKTKPGSRTHFGQKAILFLPLPVSSD
Consider B11, for which, under setting [7], the denaturant m value came to 3.8 kcal/mol/M, the “denaturant midpoint” value came out at 1.6 M and the unfolding free energy amounted to 6.1 kcal/mol.

B12: Plastocyanin wild type, P00287 (protein)
chain: LEVLLGSGDGSLVFVPSEFSVPSGEKIVFKNNAGFPHNVVFDEDEIPAGVDAVKISMPEEELLNAPGETYVVTLDTKGTYSFYCSPHQGAGMVGKVTVN
On to B12, for which, under setting [8], the denaturant m value was 2.7 kcal/mol/M, the “denaturant midpoint” value is 2.1 M and the unfolding free energy came out at 5.8 kcal/mol. Besides, under setting [9], the denaturant m value was 2.5 kcal/mol/M, the “denaturant midpoint” value turned out to be 2.1 M and the unfolding free energy turned out to be 5.3 kcal/mol.
